# Measured values taken from EP4725970A1 (Fortvita Biologics Inc., dated 2026).
# Positions count from the first letter of the chain named. Read-outs that look alike come from different tables or passages of the source.
# T1: human BCMA (full-length, on cells) (human, UniProt Q02223 1-184)
# T1 construct: Overexpressed on GS-CHO and 293T cells; also the BCMA of H929 and L363 myeloma cells in the killing assays; also called hBCMA; wild-type BCMA
# T1 sequence: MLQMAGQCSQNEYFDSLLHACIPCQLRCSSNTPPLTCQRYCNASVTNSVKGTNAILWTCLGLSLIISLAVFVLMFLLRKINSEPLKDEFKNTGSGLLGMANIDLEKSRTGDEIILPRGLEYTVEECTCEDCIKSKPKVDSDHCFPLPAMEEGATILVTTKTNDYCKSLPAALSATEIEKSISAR
# T2: cyno CD3E&G-His/Free (cynomolgus monkey, UniProt Q95LI5 22-117; Q95LI7 23-113)
# T2 construct: Bought recombinant heterodimer; also called monkey CD3 E&G
# T2 sequence (looked up) 1: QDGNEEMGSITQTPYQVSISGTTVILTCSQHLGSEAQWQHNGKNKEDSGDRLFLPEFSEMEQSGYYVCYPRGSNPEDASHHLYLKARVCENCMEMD
# T2 sequence (looked up) 2: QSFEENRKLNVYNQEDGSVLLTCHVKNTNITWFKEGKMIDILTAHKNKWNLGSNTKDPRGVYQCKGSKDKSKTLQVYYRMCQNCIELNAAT
# B1: Roche-GPRC5D/CD3 (bispecific antibody)
# light 1: DIVLTQSPALAVSPGQRATISCRASQSVSISGINLMNWYQQKPGQQPKLLIYHASILASGIPTRFSGSGSGTDFTLTIDPVQADDIATYYCQQTRESPLTFGSGTNLEIKRTVAAPSVFIFPPSDRKLKSGTASVVCLLNNFYPREAKVQWKVDNALQSGNSQESVTEQDSKDSTYSLSSTLTLSKADYEKHKVYACEVTHQGLSSPVTKSFNRGEC
# light 2: EVQLLESGGGLVQPGGSLRLSCAASGFTFSTYAMNWVRQAPGKGLEWVSRIRSKYNNYATYYADSVKGRFTISRDDSKNTLYLQMNSLRAEDTAVYYCVRHGNFGNSYVSWFAYWGQGTLVTVSSASVAAPSVFIFPPSDEQLKSGTASVVCLLNNFYPREAKVQWKVDNALQSGNSQESVTEQDSKDSTYSLSSTLTLSKADYEKHKVYACEVTHQGLSSPVTKSFNRGEC
# heavy 1: ELQLEQSGGGLVQPGGSLTLSCAASGFTFSKYAMAWVRQAPTKGLEWVASISTGGVNTYYRDSVKARFTISRDNAKNTQYLQMDSLRSEDTATYYCATHTGDYFDYWGQGVMVTVSSASTKGPSVFPLAPSSKSTSGGTAALGCLVEDYFPEPVTVSWNSGALTSGVHTFPAVLQSSGLYSLSSVVTVPSSSLGTQTYICNVNHKPSNTKVDEKVEPKSCDKTHTCPPCPAPEAAGGPSVFLFPPKPKDTLMISRTPEVTCVVVDVSHEDPEVKFNWYVDGVEVHNAKTKPREEQYNSTYRVVSVLTVLHQDWLNGKEYKCKVSNKALGAPIEKTISKAKGQPREPQVCTLPPSRDELTKNQVSLSCAVKGFYPSDIAVEWESNGQPENNYKTTPPVLDSDGSFFLVSKLTVDKSRWQQGNVFSCSVMHEALHNHYTQKSLSLSPGK
# heavy 2: not shown
# notes: GPRC5D/CD3 bispecific derived from WO 2019/154890 A1
# B2: F2 (87) (F2-SP34.87-SC38497) (trispecific antibody, human IgG1, kappa, lambda, L234A L235A)
# heavy 1: not shown
# light 1: DIVMTQSPDSLAVSLGERATINCRASESVDSYGITFMNWYQQKPGQPPKLLIYAASNQGSGVPDRFSGSGSGTDFTLTISSLQAEDVAVYYCQQSKEVPWTFGQGTKLEIKRTVAAPSVFIFPPSDEQLKSGTASVVCLLNNFYPREAKVQWKVDNALQSGNSQESVTEQDSKDSTYSLSSTLTLSKADYEKHKVYACEVTHQGLSSPVTKSFNRGEC
# heavy 2: EVQLVESGGGLVQPGGSLKLSCAASGFTFNTYAMNWVRQASGKGLEWVGRIRSKYNNYATYYADSVKDRFTISRDDSKSTLYLQMNSLKTEDTAVYYCARHYNFGQSYVSWFAYWGQGTTVTVSSASTKGPSVFPLAPSSKSTSGGTAALGCLVKDYFPEPVTVSWNSGALTSGVHTFPAVLQSSGLYSLSSVVTVPSSSLGTQTYICNVNHKPSNTKVDKKVEPKSCDKTHTCPPCPAPEAAGGPSVFLFPPKPKDTLMISRTPEVTCVVVDVSHEDPEVKFNWYVDGVEVHNAKTKPREEQYNSTYRVVSVLTVLHQDWLNGKEYKCKVSNKALPAPIEKTISKAKGQPREPQVYTLPPSRDELTKNQVSLSCAVKGFYPSDIAVEWESNGQPENNYKTTPPVLDSDGSFFLVSKLTVDKSRWQQGNVFSCSVMHEALHNHYTQKSLSLSPGAGGGGSGGGGSDIQMTQSPSSLSASVGDRVTITCRASQSISRYLNWYQQKPGKAPKLLIYAASSLQSGVPSRFSGSGSGTDFTLTISSLQPEDFATYYCQQKYFDITFGCGTKVEIKGGGGSGGGGSGGGGSQLQLQESGPGLVKPSETLSLTCTVSGGSIVSSSYYWTWIRQPPGKCLEWIGSISIAGSTYYNPSLKSRVTISVDTSKNQFSLKLSSVTAADTAVYYCARDRGDQILDVWSQGTMVTVSS
# light 2: QAVVTQEPSLTVSPGGTVTLTCRSSTGAVTTSNYANWVQQKPGQAPRGLIGGTNKRAPGVPARFSGSLLGDKAALTLLGAQPEDEAEYYCALWYSNLWVFGQGTKLTVLGQPKAAPSVTLFPPSSEELQANKATLVCLISDFYPGAVTVAWKADSSPVKAGVETTTPSKQSNNKYAASSYLSLTPEQWKSHRSYSCQVTHEGSTVEKTVAPTECS
# B3: B3b (87) (497(GLS)_sp34.87_5E12_triFab) (trispecific antibody, human IgG1, kappa, lambda, L234A L235A)
# heavy 1: not shown
# light 1: not shown
# heavy 2: not shown
# light 2: B2 light 1 with Q42D, Q128C, C218S
# light 3: B2 light 2 with Q40K
# notes: also called Exemplary antibody No. 4
# B4: B3 (87) (hz5E12_sp34.87_497_triFab) (trispecific antibody, human IgG1, kappa, lambda, L234A L235A)
# heavy 1: not shown
# light 1: B2 light 1
# heavy 2: not shown
# light 2: DIQMTQSPSSLSASVGDRVTITCRASQSISRYLNWYQDKPGKAPKLLIYAASSLQSGVPSRFSGSGSGTDFTLTISSLQPEDFATYYCQQKYFDITFGGGTKVEIKRTVAAPSVFIFPPSDECLKSGTASVVCLLNNFYPREAKVQWKVDNALQSGNSQESVTEQDSKDSTYSLSSTLTLSKADYEKHKVYACEVTHQGLSSPVTKSFNRGES
# light 3: B2 light 2 with Q40K
# notes: also called Exemplary antibody No. 2
# B5: B5 (87) (hz5E12_sp34.87_497_triFab) (trispecific antibody, human IgG1, kappa, lambda, L234A L235A)
# heavy 1: not shown
# light 1: B2 light 1
# heavy 2: not shown
# light 2: B2 light 2 with Q40K
# light 3: B4 light 2
# notes: also called Exemplary antibody No. 3
# B6: F2 (24) (F2-SP34.24-SC38497) (trispecific antibody, human IgG1, kappa, lambda, L234A L235A)
# heavy 1: not shown
# light 1: B2 light 1
# heavy 2: B2 heavy 2 with Y102G
# light 2: B2 light 2
# How the values were obtained:
# [1] = biological target: T3, human CD3 (on Jurkat cells and human T cells) (human, UniProt P07766 23-207); assay: flow cytometry, human CD4 T cells
# T3 construct: whole, on cells; the other chains of the complex on the cells are not described; also called CD3E
# [2] = biological target: T4, human GPRC5D (full-length, on cells) (human, UniProt Q9NZD1 1-345); assay: flow cytometry, GS-CHO-hGPRC5D cells
# T4 construct: whole, on cells; Overexpressed on GS-CHO cells; also the GPRC5D of H929 and L363 myeloma cells in the killing assays; also called hGPRC5D; GS-CHO-hGPRC5D
# [3] = biological target: T4, human GPRC5D (full-length, on cells); assay: cell-based or functional assay
# [4] = biological target: T3, human CD3 (on Jurkat cells and human T …); assay: flow cytometry, human CD8 T cells
# [5] = biological target: T3, human CD3 (on Jurkat cells and human T …); assay: flow cytometry, Jurkat cells
# [6] = biological target: T4, human GPRC5D (full-length, on cells); assay: cell-based or functional assay; remark: listed apart in the source
# [7] = biological target: T4, human GPRC5D (full-length, on cells); assay: flow cytometry, GS-CHO-hGPRC5D cells; remark: listed apart in the source
# [8] = biological target: T1, human BCMA (full-length, on cells); assay: flow cytometry, GS-CHO-hBCMA cells
# [9] = biological target: T4, human GPRC5D (full-length, on cells); assay: cell-based or functional assay; remark: listed apart in the source
# Cyno BCMA-His = biological target: T5, Cyno BCMA-His (cynomolgus monkey, UniProt A0A2K5UD97 1-53); assay: BLI (Octet), 1:1 fit
# T5 construct: also called Cyno BCMA (ACRO BCA-C52H7); monkey BCMA
# human CD3E&G-His/Free = biological target: T6, human CD3E&G-His/Free (human, UniProt P07766 23-126; P09693 23-116); assay: BLI (Octet), 1:1 fit
# T6 construct: Bought recombinant heterodimer; 'His/Free' as printed (one chain His-tagged); also called human CD3 E&G heterodimer
# cyno CD3E&G-His/Free = biological target: T2, cyno CD3E&G-His/Free; assay: BLI (Octet), 1:1 fit
# [10] = biological target: T7, cynomolgus monkey GPRC5D (full-length, on cells) (cynomolgus monkey, UniProt A0A2K5W6I7 1-300); assay: flow cytometry, GS-CHO-cynoGPRC5D cells
# T7 construct: also called cynoGPRC5D; GS-CHO-cynoGPRC5D
# [11] = biological target: T1, human BCMA (full-length, on cells); assay: cell-based or functional assay
# [12] = biological target: T1, human BCMA (full-length, on cells); assay: cell-based or functional assay; remark: listed apart in the source
# [13] = biological target: T1, human BCMA (full-length, on cells); assay: cell-based or functional assay; remark: listed apart in the source
# [14] = biological target: T1, human BCMA (full-length, on cells); assay: flow cytometry, GS-CHO-hBCMA cells; remark: listed apart in the source
# [15] = biological target: T8, cynomolgus monkey BCMA (full-length, on cells) (cynomolgus monkey, UniProt A0A2K5UD97 1-183); assay: flow cytometry, GS-CHO-cynoBCMA cells
# T8 construct: whole, on cells; also called cynoBCMA; GS-CHO-cynoBCMA
# T8 sequence (A0A2K5UD97 entry or part of it): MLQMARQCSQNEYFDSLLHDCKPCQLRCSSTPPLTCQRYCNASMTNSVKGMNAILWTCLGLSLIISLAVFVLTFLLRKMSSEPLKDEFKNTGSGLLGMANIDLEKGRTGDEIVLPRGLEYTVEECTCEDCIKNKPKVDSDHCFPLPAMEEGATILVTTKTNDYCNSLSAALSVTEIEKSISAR
# T5 sequence (A0A2K5UD97 entry or part of it): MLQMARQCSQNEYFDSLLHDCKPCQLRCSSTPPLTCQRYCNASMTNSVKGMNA
# T4 sequence (Q9NZD1 whole entry): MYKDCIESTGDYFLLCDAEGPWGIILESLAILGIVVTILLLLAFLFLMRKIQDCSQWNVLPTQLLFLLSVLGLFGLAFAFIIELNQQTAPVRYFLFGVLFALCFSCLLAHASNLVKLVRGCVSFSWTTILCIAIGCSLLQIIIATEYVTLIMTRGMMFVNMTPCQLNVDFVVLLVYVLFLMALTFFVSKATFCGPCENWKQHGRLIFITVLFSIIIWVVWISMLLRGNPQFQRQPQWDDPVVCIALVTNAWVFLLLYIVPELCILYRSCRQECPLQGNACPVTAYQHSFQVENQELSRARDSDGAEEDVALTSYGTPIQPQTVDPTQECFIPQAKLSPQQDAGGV
# T3 sequence (P07766 23-207): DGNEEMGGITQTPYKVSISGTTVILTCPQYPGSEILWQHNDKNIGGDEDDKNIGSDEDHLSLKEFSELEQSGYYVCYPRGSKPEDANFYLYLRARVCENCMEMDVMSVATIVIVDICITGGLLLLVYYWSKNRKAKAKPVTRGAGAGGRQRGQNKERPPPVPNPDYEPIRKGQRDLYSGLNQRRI
# T6 sequence (P07766 23-126, chain 1 of 2): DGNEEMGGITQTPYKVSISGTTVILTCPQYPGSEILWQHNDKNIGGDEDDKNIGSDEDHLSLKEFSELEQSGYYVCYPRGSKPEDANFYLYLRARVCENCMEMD
# T6 sequence (P09693 23-116, chain 2 of 2): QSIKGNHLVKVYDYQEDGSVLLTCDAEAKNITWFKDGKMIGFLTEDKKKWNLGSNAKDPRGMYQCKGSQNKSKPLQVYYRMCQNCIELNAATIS
# T7 sequence (A0A2K5W6I7 entry or part of it limits assumed, form in doubt): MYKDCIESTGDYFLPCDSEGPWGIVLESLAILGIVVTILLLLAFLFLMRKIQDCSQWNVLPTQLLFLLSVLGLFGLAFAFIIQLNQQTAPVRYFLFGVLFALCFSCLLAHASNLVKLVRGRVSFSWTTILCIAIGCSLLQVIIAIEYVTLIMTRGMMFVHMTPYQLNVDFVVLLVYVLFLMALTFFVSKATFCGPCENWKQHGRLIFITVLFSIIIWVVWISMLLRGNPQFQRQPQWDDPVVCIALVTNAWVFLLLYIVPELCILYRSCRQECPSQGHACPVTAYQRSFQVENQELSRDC
Binder,EC50 [1],EC50 [2],EC50 of PBMC killing of H929 ko BCMA cells (LDH) [3],EC50 [4],EC50 [5],"EC50 of PBMC killing of H929 ko BCMA cells, donor1 [6]",EC50 [7],EC50 [8],EC50 of PBMC killing of H929 ko BCMA cells (LDH) [9],Kd (Cyno BCMA-His),koff (Cyno BCMA-His),kon (Cyno BCMA-His),Kd (human CD3E&G-His/Free),koff (human CD3E&G-His/Free),kon (human CD3E&G-His/Free),Kd (cyno CD3E&G-His/Free),koff (cyno CD3E&G-His/Free),kon (cyno CD3E&G-His/Free),EC50 of PBMC killing of H929 ko GPRC5D cells (LDH) [12],"EC50 of PBMC killing of H929 ko GPRC5D cells, donor1 [13]",further results
B1,66.6 nM,9.78 nM,0.00419 nM,65.8 nM,30.4 nM,0.00486 nM,16 nM,,,,,,,,,,,,,,
B2,,94.1 nM,0.0256 nM,,,0.0342 nM,98.6 nM,211 nM,0.00739 nM,1.55 nM,0.000961 s⁻¹,621000 M⁻¹ s⁻¹,55 nM,0.0131 s⁻¹,239000 M⁻¹ s⁻¹,71.1 nM,0.0124 s⁻¹,175000 M⁻¹ s⁻¹,0.0677 nM,0.0304 nM,EC50 [10]: 196 nM; EC50 of PBMC killing of H929 ko GPRC5D cells (LDH) [11]: 0.428 nM; EC50 [14]: 120 nM; EC50 [15]: 117 nM
B3,,95.9 nM,,,,0.879 nM,,,,,,,,,,,,,,0.14 nM,
B4,,132 nM,,,,0.0663 nM,,,0.025 nM,1.58 nM,0.00122 s⁻¹,773000 M⁻¹ s⁻¹,69.4 nM,0.0151 s⁻¹,218000 M⁻¹ s⁻¹,61.1 nM,0.0131 s⁻¹,214000 M⁻¹ s⁻¹,0.176 nM,0.346 nM,EC50 [14]: 37.7 nM
B5,,,,,,,,,0.0105 nM,,,,,,,,,,0.182 nM,,binding result [14]: no binding
B6,32.5 nM,,0.004 nM,33.7 nM,8.94 nM,,73.3 nM,142 nM,,,,,17.2 nM,0.00765 s⁻¹,445000 M⁻¹ s⁻¹,12.5 nM,0.00597 s⁻¹,476000 M⁻¹ s⁻¹,,,EC50 [10]: 108 nM; EC50 of PBMC killing of H929 ko GPRC5D cells (LDH) [11]: 0.475 nM; EC50 [15]: 83 nM
